Results published in publication PMC6318328, “Structural insights into trans-histone regulation of H3K4 methylation by unique histone H4 binding of MLL3/4” (Nature Communications, 2019).
Values belong to the substance of their own block, whether it stands above or below them.

What was measured:
[1] = test system: recombinant nucleosomes (histone H3K4); test: In vitro histone methyltransferase (HMT) assay of MLL3/MLL4 constructs; type: biochemical; conditions: recombinant nucleosomes 0.5 μg, 2.5 μCi [3H]-SAM, 30 °C, 16 h, autoradiography (Fig. 3b, c)
Description: Mammalian expression plasmids encoding different fusions of MLL3 PHD and SET domains were subcloned into the pFLAG-CMV2 vector (Sigma-Aldrich, E7033) and were transiently expressed in HEK 293T cells (ATCC® ACS-4500™) by using Lipofectamine 2000 (ThermoFisher Scientific, 11668027) according to manufacturer’s protocol. Two days after transfection, cells were harvested and then lysed by mammalian lysis buffer (20 mM Tris-HCl, 137 mM NaCl, 1.5 mM MgCl2, 1 mM EDTA, 10% glycerol, 1% Triton X-100, 0.2 mM PMSF, 1 μg mL^−1 aprotinin, 2.5 μg mL^−1 leupeptin, and 1 μg mL^−1 pepstatin at pH 8.0). FLAG immunoprecipitation (FLAG IP) was performed in a similar way as described previously. In brief, total cell lysates were incubated with anti-FLAG M2 Affinity Gel (Sigma-Aldrich, A2220) in 4 °C for 5 h and were extensively washed with BC500 (20 mM Tris-HCl, 500 mM KCl, 1.5 mM MgCl2, 0.2 mM EDTA, 10% glycerol, 0.2 mM PMSF at pH 8.0). […]
HMT assay was performed according to a previously described method with minor modifications. […] The signals for HMT activity were detected by autoradiography. The input of the MLL3/4 proteins and nucleosomes were detected by mouse monoclonal anti-FLAG M2 (Sigma-Aldrich, F3165, 1:1000) and rabbit polyclonal anti-H3 antibody (Abcam, ab1791, 1:1000), respectively. […]

[2] = target: T1, MLL3_(ePHD6)1055–1144 (Homo sapiens, UniProt Q8NEZ4); test: ITC binding of histone peptides to MLL3 ePHD6 (1055–1144); design: key to ITC titration, Kd / Kd: NB: no detectable binding; conditions: for Kd / binding to ePHD6 of MLL3 (in words): ITC; for Kd: 20 mM Tris pH 7.5, 150 mM NaCl, 25 °C, protein 50–100 μM in cell, peptide 1–2 mM in syringe, single measurement, error from fitting curve; for ITC titration, Kd: Supplementary Fig. 4 and 7, MLL3_ePHD6, pH 7.5, 25 °C
T1 construct: MLL3_ePHD6, residues 1055–1144 and residues 1075–1144; GST (N, cleaved yes); His (N, cleaved yes); made in house; host or cells: E. coli BL21 (DE3) Codon plus RIL
T1 sequence (Q8NEZ4 1055-1144): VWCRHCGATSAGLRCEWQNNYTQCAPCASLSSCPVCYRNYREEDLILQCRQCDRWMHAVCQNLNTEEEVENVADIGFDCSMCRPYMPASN
Text: (§1) The DNA fragments of MLL3 and MLL4 PHD domains (MLL3_ePHD6, residues 1055–1144 and residues 1075–1144; MLL3_PHD6, residues 1085–1144; MLL3_PHD5, residues 1009–1055; MLL3_PHD5-6, residues 1008–1144; MLL3_ePHD3, residues 436–525; MLL4_ePHD6, residues 1475–1564, and residues 1495–1564; MLL4_PHD6 residues 1505–1564 and MLL4_PHD5 residues 1429–1475) were subcloned into a modified pET28GST-LIC vector by T4 ligase-independent method (Clontech, 638920) to generate N-terminal GST, His-tagged fusion protein. The recombinant protein was overexpressed in E coli BL21 (DE3) Codon plus RIL (Stratagene) at 15 °C by induction with 0.25 mM IPTG at an OD600 of 0.8 and purified by affinity chromatography on Ni-nitrilotriacetate resin (Qiagen, 30250) followed by thrombin protease treatment to remove the tag. The protein was further purified by HiTrap Q HP column (GE Healthcare, 17115401) by using buffers with 20 mM Tris, pH 8.0, 1 mM DTT, 50 mM NaCl (low salt buffer) or 1 M NaCl (high salt buffer), and Superdex75 gel-filtration column (GE Healthcare, 28989333) by using a buffer containing 20 mM Tris, pH 7.5, 150 mM NaCl, 50 μM ZnCl2, and 1 mM DTT. For crystallization experiments, purified protein was concentrated to 5 mg mL^−1 in the same buffer as gel-filtration by using Amicon Ultra-15 Centrifugal Filter Units (Millipore Corporation, UFC901024).
(§2) For the ITC measurement, the concentrated proteins were diluted into 20 mM Tris, pH 7.5, 150 mM NaCl; the lyophilized peptides (Peptide 2.0 Inc.) were dissolved in the same buffer, and the pH value was adjusted by adding NaOH. Peptides concentrations were estimated from the mass. […] The protein with a concentration of 50–100 μM was placed in the cell chamber, and the peptides with a concentration of 1–2 mM in syringe was injected in 25 (19 for iTC-200) successive injections with a spacing of 180 s (150 s for iTC-200) and a reference power of 13 μcal s^−1 (6 μcal s^−1 for iTC-200). Control experiments were performed under identical conditions to determine the heat signals that arise from injection of the peptides into the buffer.

[3] = target: T2, MLL4_(ePHD6)1475–1564 (Homo sapiens, UniProt O14686); test: ITC binding of histone peptides to MLL4 ePHD6 (1475–1564); design: key to ITC titration, Kd / Kd: NB: no detectable binding; conditions: for Kd / binding to ePHD6 of MLL4 (in words): ITC; for Kd: 20 mM Tris pH 7.5, 150 mM NaCl, 25 °C, protein 50–100 μM in cell, peptide 1–2 mM in syringe, single measurement, error from fitting curve; for ITC titration, Kd: Supplementary Fig. 4 and 7, MLL4_ePHD6, pH 7.5, 25 °C
T2 construct: MLL4_ePHD6, residues 1475–1564, and residues 1495–1564; GST (N, cleaved yes); His (N, cleaved yes); made in house; host or cells: E. coli BL21 (DE3) Codon plus RIL
T2 sequence (O14686 1475-1564): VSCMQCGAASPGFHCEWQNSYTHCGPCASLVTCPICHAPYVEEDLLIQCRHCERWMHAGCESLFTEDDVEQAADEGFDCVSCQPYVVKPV
Text: as §1, §2

[4] = test system: fourth (PHD4), fifth (PHD5), and sixth (PHD6) PHD domains of MLL4; conditions: peptide pull-down; histone H4 fragment containing the first 23 amino acids; ref [29]; cited from earlier work
Text: (§3) Both MLL3 and MLL4 are multi-domain proteins, containing not only the catalytic SET domain but also a few other domains, including two clusters of PHD domains (Fig. 1a). […] The interaction between histone H4_1–23 and PHD6 do ...

[5] = test system: PHD6 domain of MLL4; conditions: ITC; ref [29]; cited from earlier work
Text: as §3

[6] = Gel filtration, oligomeric state in solution; type: physicochemical; conditions: Superdex200 10/300 GL, 20 mM Tris pH 7.5, 150 mM NaCl, 50 μM ZnCl2, 1 mM DTT
Description: Supplementary Fig. 3 Superimposition of gel-filtration curves of PHD6 and ePHD6 domains of MLL3 and MLL4. Gel filtration chromatography of MLL3 ePHD6 (red), PHD6 (pink), MLL4 ePHD6 (brown), PHD6 (green) and protein molecular weight standards (blue, Bio-Rad). Samples were loaded to the Superdex200 10/300 GL (GE Healthcare) column in the buffer containing 20 mM Tris, pH 7.5, 150 mM NaCl, 50 μM ZnCl2,and1mMDTT. […]

Substance: 1M: W1109A single point mutation of MLL3
- nucleosomal methyltransferase activity [1]: reduced the enzyme activity

Substance: 2M: W1109A/E1120A double point mutation of MLL3
- nucleosomal methyltransferase activity [1]: reduced the enzyme activity

Substance: H3_1–20: histone H3 peptide, residues 1–20
- Kd [2]: NB
- Kd [3]: NB

Substance: H4R3me0: histone H4 fragment containing the first 23 amino acids, unmethylated
- recognition by PHD4, PHD5 and PHD6 of MLL4 [4]: able to recognize

Substance: H4R3me2a: histone H4 fragment containing the first 23 amino acids, asymmetrically dimethylated on histone H4R3
- recognition by PHD4, PHD5 and PHD6 of MLL4 [4]: able to recognize

Substance: H4_1–12R3me2a: histone H4 peptide covering the first 12 residues, asymmetrically methylated (H4R3me2a)
- Kd [2]: NB
- Kd [3]: NB

Substance: H4_1–23: histone H4 fragment containing the first 23 amino acids
- interaction with PHD6 domain [5]: confirmed

Substance: H411–21K16A: histone H4-derived mutant peptide (GKGGAARHRKV; UniProt P62805 12-22, looked up, variant K16A)
- binding to ePHD6 of MLL3 (in words) [2]: weakened the binding significantly
- ITC titration, Kd [2]: Weak binding
- binding to ePHD6 of MLL4 (in words) [3]: weakened the binding significantly
- ITC titration, Kd [3]: Weak binding

Substance: MLL3 PHD6: PHD6 domain of MLL3 (SSCPVCYRNYREEDLILQCRQCDRWMHAVCQNLNTEEEVENVADIGFDCSMCRPYMPASN; left off: GST, N-terminal, cleaved | His tag, N-terminal, cleaved)
- oligomeric state in solution [6]: monomer in solution

Substance: MLL4 PHD6: PHD6 domain of MLL4 (VTCPICHAPYVEEDLLIQCRHCERWMHAGCESLFTEDDVEQAADEGFDCVSCQPYVVKPV; left off: GST, N-terminal, cleaved | His tag, N-terminal, cleaved)
- oligomeric state in solution [6]: dimer in solution

Continued, in another order:

- Kd [2]: NB
- Kd [3]: NB
Substance: H4_1–12: histone H4 peptide covering the first 12 residues
- binding to ePHD6 of MLL3 (in words) [2]: neither MLL3 nor MLL4 displayed detectable binding
- binding to ePHD6 of MLL4 (in words) [3]: neither MLL3 nor MLL4 displayed detectable binding

- ITC titration, Kd [2]: NB
- ITC titration, Kd [3]: NB
Substance: H41–24H18A: histone H4-derived mutant peptide

- ITC titration, Kd [2]: NB
- ITC titration, Kd [3]: NB
Substance: H411–21H18A: histone H4-derived mutant peptide (GKGGAKRARKV; UniProt P62805 12-22, looked up, variant H18A)

- ITC titration, Kd [2]: NB
- ITC titration, Kd [3]: NB
Substance: H411–21R17A: histone H4-derived mutant peptide (GKGGAKAHRKV; UniProt P62805 12-22, looked up, variant R17A)

- binding to ePHD6 of MLL3 (in words) [2]: weakened the binding significantly
- ITC titration, Kd [2]: Weak binding
- binding to ePHD6 of MLL4 (in words) [3]: weakened the binding significantly
- ITC titration, Kd [3]: Weak binding
Substance: H411–21R19A: histone H4-derived mutant peptide (GKGGAKRHAKV; UniProt P62805 12-22, looked up, variant R19A)
